{"source": "patent US20150266969A1", "binders": {"B1": {"name": "PEP2-2-2 Fc (Fc fusion, not shown: a dimerising Fc or GST)", "chain": "EVQLLESGGGLVQPGGSLRLSCAASGFTFRNHDMGWVRQAPGKGLEWVSAISGSGGSTYYADSVKGRFTISRDNSKNTLYLQMNSLRAEDTAVYYCAEPKPMDTEFDYRSQGTLVTVSS"}, "B2": {"name": "PEP2-2-1-1 Fc (Fc fusion, not shown: a dimerising Fc or GST)", "chain": "EVQLLESGGGLVQPGGSLRLSCAASGFTFRNHDMGWVRQAPGKGLEWVSAISGSGGSTYYADSVKGRFTISRDNSKNTLYLQMNSLRAEDTAVYYCAEPKPMDTEFDYRSPGTLVTVSS"}, "B3": {"name": "PEP2-47-1 Fc (Fc fusion, not shown: a dimerising Fc or GST)", "chain": "EVQLLESGGGLVQPGGSLRLSCAASGYTFPMKDMGWVRQAPGKGLEWVSAISGSGGGTYYADSVKGRFTISRDNSKNTLYLQMNSLRAEDTAVYYCAEPSHFDRPFDYRSQGTLVTVSS"}, "B4": {"name": "PEP2-247-1 Fc (Fc fusion, not shown: a dimerising Fc or GST)", "chain": "EVQLLESGGGLVQPGGSLRLSCAASGFTFRNHDMGWVRQAPGKGLEWVSAISGSGGGTYYADSVKGRFTISRDNSKNTLYLQMNSLRAEDTAVYYCAEPSHFDRPFDYRSQGTLVTVSS"}, "B5": {"name": "PEP2-247-2 Fc (Fc fusion, not shown: a dimerising Fc or GST)", "chain": "EVQLLESGGGLVQPGGSLRLSCAASGFTFRNHDMGWVRQAPGKGLEWVSAISGSGGSTYYANSVKGRFTISRDNSKNTLYLQMNSLRAEDTAVYYCAEPSHFDRPFDYRSQGTLVTVSS"}, "B6": {"name": "PEP2-472-1 Fc (Fc fusion, not shown: a dimerising Fc or GST)", "chain": "EVQLLESGGGLVQPGGSLRLSCAASGYTFPMKDMGWVRQAPGKGLEWVSAISGSGGGTYYADSVKGRFTISRDNSKNTLYLQMNSLRAEDTAVYYCAEPKPMDTEFDYRSQGTLVTVSS"}, "B7": {"name": "PEP2-47 Fc (Fc fusion, not shown: a dimerising Fc or GST)", "chain": "EVQLLESGGGLVQPGGSLRLSCAASGFTFPMKDMGWVRQAPGKGLEWVSAISGSGGSTYYADSVKGRFTISRDNSKNTLYLQMNSLRAEDTAVYYCAEPSHFDRPFDYWGQGTLVTVSS"}, "B8": {"name": "PEP2-42 Fc (Fc fusion, not shown: a dimerising Fc or GST)", "chain": "EVQLLESGGGLVQPGGSLRLSCAASGFTFDNVEMSWVRQAPGKGLEWVSSIGSKGEDTYYADSVKGRFTISRDNSKNTLYLQMNSLRAEDTAVYYCAQTVNVPEPAFAYWGQGTLVTVSS"}, "B9": {"name": "PEP2-42-1 Fc (Fc fusion, not shown: a dimerising Fc or GST)", "chain": "EVQMLESGGGLVQPGGSLRLSCAASGFTFDNVEMSWVRQAPGKGLEWVSSIGTKGEYTYYADSVKGRFTISRDNSKNTLYLQMNSMRAEDTAVYYCAQTVNVPEPAFAYWGQGTLVTVLS"}, "B10": {"name": "E200 peptide (peptide)", "chain": "GHNYTTRNILPGLNITC", "modifications": "not checked"}}, "data": [{"biological_target": "E200 peptide", "assay": "Biacore, PEP2-Fc on E200", "units": {"Kd": "nM"}, "values": [{"binder": "B1", "Kd": 0.1}, {"binder": "B2", "Kd": 0.09}, {"binder": "B3", "Kd": 0.11}, {"binder": "B4", "Kd": 0.19}, {"binder": "B5", "Kd": 0.45}, {"binder": "B6", "Kd": 0.09}, {"binder": "B7", "Kd": 7.5}, {"binder": "B8", "Kd": 5.5}, {"binder": "B9", "Kd": 0.12}]}, {"biological_target": "PEP2-4 dAb", "sequence (chain, as listed by the source)": "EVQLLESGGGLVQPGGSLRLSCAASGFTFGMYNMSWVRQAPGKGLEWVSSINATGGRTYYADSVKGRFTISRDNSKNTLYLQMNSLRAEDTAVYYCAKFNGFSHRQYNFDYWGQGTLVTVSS", "assay": "immunohistochemistry on cervical cancer sections, 20 nM PEP2-4 with added free peptide; estimate between no inhibition at 10 uM and clear inhibition at 100 uM", "units": {"IC50": "nM"}, "values": [{"binder": "B10", "IC50": "40000 to 50000"}]}]}
